According to patent US5501962, “Interleuken-3 (IL-3) human/murine hybrid polypeptides and recombinant production of the same” (G. D. Searle & Co., dated 1996):

T1: IL-3 receptor (human, UniProt P26951)
T1 sequence: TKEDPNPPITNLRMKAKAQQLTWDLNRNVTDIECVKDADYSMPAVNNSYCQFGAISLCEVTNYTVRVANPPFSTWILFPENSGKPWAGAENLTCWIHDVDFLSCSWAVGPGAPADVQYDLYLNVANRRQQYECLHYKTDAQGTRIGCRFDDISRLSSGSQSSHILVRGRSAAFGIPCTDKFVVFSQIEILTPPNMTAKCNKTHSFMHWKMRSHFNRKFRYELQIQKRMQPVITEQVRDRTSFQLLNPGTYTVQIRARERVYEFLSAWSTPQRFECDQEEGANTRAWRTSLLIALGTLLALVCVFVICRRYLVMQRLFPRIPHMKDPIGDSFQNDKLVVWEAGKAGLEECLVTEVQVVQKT


Tests used:
IL-3 receptor (human) [1] = target: IL-3 receptor (human) (UniProt P26951); experiment: competition with iodinated hIL-3 ligand (pMON 5966) on AML 193 1.3.9 cells
IL-3 receptor (human) [2] = target: IL-3 receptor (human) (UniProt P26951)
IL-3 receptor [3] = target: T1, IL-3 receptor; experiment: competition with iodinated hIL-3 ligand (pMON 5966) on AML 193 1.3.9 cells
Experimental: These cells were further selected using biotin conjugated hIL-3 and FITC-avidin for repetitive fluorescence activated cell sorting (FACS) and were designated AML 193 1.3.9. This line was grown in IMDM supplemented with 5% FBS and 40 μM beta-mercaptoethanol and human IL-3 (1 to 4 ng/mL). The HL-60 cell line was obtained from ATCC and grown in RPMI 1640, 10% FBS and 40 μM beta-mercaptoethanol. Ligand for IL-3 receptor assays was derived from an E. coli expression vector encoding full length hIL-3 molecule (amino acids 1 to 133) having a 14 amino acid N-terminal extension. ([…][SEQ ID NO: 119]; designated as pMON 5966, est. MW 16,976). This construct contained two additional tyrosines which were essential for iodination to high-specific radioactivity without loss of biological activity. This ligand was radiolabeled with iodine-125 using an insoluble lactoperoxidase method (®Enzymobeads) and used following HPLC purification. […] Ligand for GM-CSF receptor assays was prepared by radiolabelling native GM-CSF with iodine-125 using the IODO-GEN method (Pierce Chemical) according to manufacturer's specifications.
For IL-3 receptor assays, AML 193 1.3.9 cells were incubated overnight in medium without growth factor. On the day of the assay the cells were washed 3 times with Hanks balanced salt solution, resuspended in assay buffer (IMDM, 5% FBS, 40 μM 2-ME and 0.1% BSA) and counted using a hemacytometer. Assay tubes contained the test compounds or inhibitors under study, 0.2% sodium azide, iodinated hIL-3 ligand (pMON 5966), 5–10×10^6 cells, and buffer in a total volume of 100 μL. Unlabelled hIL-3 (250 nM) was used to define non-specific binding, and each assay point was set up in triplicate. After incubation with gentle orbital agitation at 200 rpm for two hours at room temperature, 1 mL of ice-cold medium was added and the binding reaction was immediately terminated by centrifugation. The supernatant was removed by aspiration, and the tip of the tube containing the cell pellet was cut off and counted in a Micromedic gamma counter.

IL-3 receptor [4] = target: T1, IL-3 receptor; experiment: cell-based or functional assay
IL-3 receptor (human) [5] = target: IL-3 receptor (human) (UniProt P26951); experiment: competition with iodinated hIL-3 ligand (pMON 5966) on AML 193 1.3.9 cells; this is the reference itself

IL-3 Receptor Binding Activity (relative to native hIL-3) (relative to native hIL-3) (IL-3 receptor (human) [1]) | Growth Factor Activity (AML 193 1.3 proliferation, 3H-thymidine; Relative Biological Activity) (relative to native hIL-3) (IL-3 receptor (human) [2]) | Leukotriene Stimulating Activity (IL-3 mediated sulfidoleukotriene release from human mononuclear cells; Relative Biological Activity) (relative to native hIL-3) (IL-3 receptor (human) [2]) | IL-3 Receptor Binding Activity (relative to native hIL-3) (IL-3 receptor [3]) | binding result (IL-3 receptor [3]) | Growth Factor Activity (AML 193 1.3 proliferation, 3H-thymidine; Relative Biological Activity) (IL-3 receptor [4]) | Leukotriene Stimulating Activity (IL-3 mediated sulfidoleukotriene release from human mononuclear cells; Relative Biological Activity) (IL-3 receptor [4]) | IL-3 Receptor Binding Activity (relative to native hIL-3) (relative to native hIL-3) (IL-3 receptor (human) [5]) | Binder
0.19 | 3.98 | 0.31 | – | – | – | – | – | pMON5977 (Met-15-125hIL-3) having an M3 substitution (ligand) MNCSNMIDEIITHLKQPPLPLLEPELKNGEDQDILMENNLRRPNLEAFNRAVKSLQNASAIESILKNLLPCLPLATAAPTRHPIHIKDGDWNEFRRKLTFYLKTLENAQAQQ
0.81 | 1.26 | 10.7 | – | – | – | – | – | pMON5962 (Met-15-125hIL-3) having an M10 substitution (ligand) MNCSNMIDEIITHLKQPPLPLLDFNNLNGEDQDILMENNLRRPNLEAFNRAVKSLQNASAIESILKNLLPCLPTSANDPTRHPIHIKDGDWNEFRRKLTFYLKTLENAQAQQ
< 0.01 | 0.04 | < 0.01 | – | – | – | – | – | pMON5970 (Met-15-125hIL-3) having an M5 substitution (ligand) MNCSNMIDEIITHLKQPPLPLLDFNNLNGEDQDSLRNKSLRRPNLEAFNRAVKSLQNASAIESILKNLLPCLPLATAAPTRHPIHIKDGDWNEFRRKLTFYLKTLENAQAQQ
< 0.01 | 0.04 | < 0.01 | – | – | – | – | – | pMON5975 (Met-15-125hIL-3) having an M4 substitution (ligand) MNCSNMIDEIITHLKQPPLPLLDFNNLTDDEGPILMENNLRRPNLEAFNRAVKSLQNASAIESILKNLLPCLPLATAAPTRHPIHIKDGDWNEFRRKLTFYLKTLENAQAQQ
< 0.01 | 0.03 | < 0.01 | – | – | – | – | – | pMON5980 (Met-Ala-15-125hIL-3) having an M1 substitution (ligand) MANCSSIVKEIIGKLPQPPLPLLDFNNLNGEDQDILMENNLRRPNLEAFNRAVKSLQNASAIESILKNLLPCLPLATAAPTRHPIHIKDGDWNEFRRKLTFYLKTLENAQAQQ
1.05 | 0.5 | 3.63 | – | – | – | – | – | pMON5961 (Met-15-125hIL-3) having an M12 substitution (ligand) MNCSNMIDEIITHLKQPPLPLLDFNNLNGEDQDILMENNLRRPNLEAFNRAVKSLQNASAIESILKNLLPCLPLATAAPTRHGVFIRDGDWNEFRRKLTFYLKTLENAQAQQ
– | 1 | 1 | – | – | – | – | 1 | (1-133)hIL-3 (ligand) APMTQTTSLKTSWVNCSNMIDEIITHLKQPPLPLLDFNNLNGEDQDILMENNLRRPNLEAFNRAVKSLQNASAIESILKNLLPCLPLATAAPTRHPIHIKDGDWNEFRRKLTFYLKTLENAQAQQTTLSLAIF

Continued, binder first:

Binder | IL-3 Receptor Binding Activity (relative to native hIL-3) (relative to native hIL-3) (IL-3 receptor (human) [1]) | Growth Factor Activity (AML 193 1.3 proliferation, 3H-thymidine; Relative Biological Activity) (relative to native hIL-3) (IL-3 receptor (human) [2]) | Leukotriene Stimulating Activity (IL-3 mediated sulfidoleukotriene release from human mononuclear cells; Relative Biological Activity) (relative to native hIL-3) (IL-3 receptor (human) [2]) | IL-3 Receptor Binding Activity (relative to native hIL-3) (IL-3 receptor [3]) | binding result (IL-3 receptor [3]) | Growth Factor Activity (AML 193 1.3 proliferation, 3H-thymidine; Relative Biological Activity) (IL-3 receptor [4]) | Leukotriene Stimulating Activity (IL-3 mediated sulfidoleukotriene release from human mononuclear cells; Relative Biological Activity) (IL-3 receptor [4]) | IL-3 Receptor Binding Activity (relative to native hIL-3) (relative to native hIL-3) (IL-3 receptor (human) [5])
pMON5968 (Met-15-125hIL-3) having an M13 substitution (ligand) MNCSNMIDEIITHLKQPPLPLLDFNNLNGEDQDILMENNLRRPNLEAFNRAVKSLQNASAIESILKNLLPCLPLATAAPTRHPIHIKDLDEFRRKLTFYLKTLENAQAQQ | – | 0.06 | 0.59 | 0.25 relative to native hIL-3 | – | – | – | –
pMON5974 (Met-15-125hIL-3 del aa29-35) having the M2 deletion shown in FIG. 19 (ligand) MNCSNMIDEIITHLKDFNNLNGEDQDILMENNLRRPNLEAFNRAVKSLQNASAIESILKNLLPCLPLATAAPTRHPIHIKDGDWNEFRRKLTFYLKTLENAQAQQ | – | 0.08 | < 0.01 | ≤ 0.01 relative to native hIL-3 | no binding | – | – | –
pMON5973 (Met-15-125hIL-3) having an M7 substitution (ligand) MNCSNMIDEIITHLKQPPLPLLDFNNLNGEDQDILMENNLRRPNLEAFNRSQGEVDNASAIESILKNLLPCLPLATAAPTRHPIHIKDGDWNEFRRKLTFYLKTLENAQAQQ | – | – | – | – | – | 0.2 relative to native hIL-3 | ≤ 0.01 relative to native hIL-3 | –
pMON5972 (Met-15-125hIL-3) having an M6 substitution (ligand) MNCSNMIDEIITHLKQPPLPLLDFNNLNGEDQDILMENNFRRVNLSKFVEAVKSLQNASAIESILKNLLPCLPLATAAPTRHPIHIKDGDWNEFRRKLTFYLKTLENAQAQQ | 0.08 | 0.2 | 0.15 | – | – | – | – | –
pMON5960 (Met-15-125hIL-3) having an M11 substitution (ligand) MNCSNMIDEIITHLKQPPLPLLDFNNLNGEDQDILMENNLRRPNLEAFNRAVKSLQNASAIESILKNLLPCLPLATAASALPPIHIKDGDWNEFRRKLTFYLKTLENAQAQQ | < 0.01 | 0.13 | 0.1 | – | – | – | – | –
pMON5979 (Met-15-125hIL-3 ALA 101) having an M8 substitution (ligand) MNCSNMIDEIITHLKQPPLPLLDFNNLNGEDQDILMENNLRRPNLEAFNRAVKSLQPEDRYVIESILKNLLPCLPLATAAPTRHPIHIKAGDWNEFRRKLTFYLKTLENAQAQQ | – | 7.94 | 0.46 | 1.21 relative to native hIL-3 | – | – | – | –
pMON5963 (Met-15-125hIL-3 Ala 101) having an M9 substitution (ligand) MNCSNMIDEIITHLKQPPLPLLDFNNLNGEDQDILMENNLRRPNLEAFNRAVKSLQNASAIKSNLQKLNSCLPLATAAPTRHPIHIKAGDWNEFRRKLTFYLKTLENAQAQQ | 1.32 | 5.01 | 12.9 | – | – | – | – | –
